Test results reported in publication PMC2946066 (Toxicon : official journal of the International Society on …, 2010).

Target: CFP/B-Lc (BoNT/B protease fused to CFP) (Clostridium botulinum, BoNT type B; …, UniProt P10844)
Experiment: pull-down

B1: YFP/B10 (VHH BLc-B10 fused to an amino terminal streptavidin binding peptide and YFP) (VHH)
VHH: QLQLVESGGGMVQPGGSLRLSCAASGFTFSTYDMSWVRQAPGKGPEWVSIINAGGGSTYYAASVKGRFAISRDNAKNTLYLQMNNLKPEDTALYYCARVASYYCRGYVCSPPEFDYWGQGTQVTVSS
binding result: binds
